Earlier results as cited in PMC4944212.
Like-named read-outs stand apart in the source and are kept apart here.

Assays:
[1] = target: SosCat SosCat (Homo sapiens) (UniProt Q07889)
[2] = target: SosCat SosCat (Homo sapiens) (UniProt Q07889); test: fluorescence titration
[3] = target: SosCat SosCat catalytic site (Homo sapiens) (UniProt Q07889)

For H-Ras (from UniProt P01112), the Kd [1] is listed as 54 µM, the Kd [2] is listed as 5 µM and the Kd [3] is listed as 21 µM.
